Data taken from the supplement of paper PMC10126150.
± gives the standard deviation of the averaged measurements.

System: ATP
Experiment: switch fluorescence ratio, 500 uM ATP over buffer (Cy3 cluster intensity, sum of 5 cycles each) (fold (ratio)); higher = stronger signal-on switching upon ATP binding; sequences stand for … in TCGTCGGCAGCGTCAGATGTGTATAAGAGACAGTTTTTTTTTTTTTTTTTTTTTTTTT…TC
Conditions: aptamer strand: ATP DNA aptamer (quencher-CACCTGGGGGAGTATTGCGGAGGAAGG + anchor), 100 nM annealed; ATP concentration: 500 uM
Procedure, shortened: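 The fluorescence ratio divides summed target-cycle Cy3 intensity by summed buffer-cycle Cy3 intensity for each cluster and is averaged per switch-domain sequence. Cy3-labelled switching-strand clusters on a modified Illumina MiSeq flow-cell were annealed to 100 nM quencher-labelled ATP aptamer, then imaged in selection buffer and again after 15 min with 500 uM ATP at 22 °C. Five such cycles were run, with NaOH stripping and re-annealing between them, and clusters outside 100-1000 RFU were excluded.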
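Note: ATP exposure 15 min at 22 °C before imaging.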

Sequence	switch fluorescence ratio
ATGCGGCATT	1.03 ± 0.044
TCTGGCCGGC	0.986 ± 0.028
ATTTCGATTA	0.9965 ± 0.0067
CGTATTGAGA	0.968 ± 0.057
GGACGTTTTT	1.01 ± 0.015
GAGACATTAC	1.61 ± 0.04
GCGCTTAAAT	1.03 ± 0.057
CGAGGGGGCC	0.97 ± 0.052
CAATGTGCAG	0.98804 ± 5.9e-06
AGCAACCTTT	1.16 ± 0.039
GTAAGTACTG	1.36 ± 0.015
GTTAACGATA	1.03 ± 0.038
GTCGTCGGCG	1.02 ± 0.025
TGATGTTGTC	0.988 ± 0.033
AAGGCTTGGG	0.992 ± 0.048
AGGACGAGGG	0.983 ± 0.013
GATTCGGTCT	1.02 ± 0.058
GTCGATTTTT	0.992 ± 0.044
TTATAAAGGT	1.03 ± 0.079
GGATAGAGGA	1.01 ± 0.02
GGAGGTTAAC	1.012 ± 0.0091
GGGGCGGAGT	0.989 ± 0.055
AGTTGTGTGG	1.02 ± 0.023
TCGCTTGCGG	1 ± 0.032
GAAATATTAG	1.02 ± 0.032
AAAAGTTGTA	1.01 ± 0.027

Sequence	switch fluorescence ratio
TTTGGCTTGT	0.9714 ± 0.0068
CTATTCGTGG	0.973 ± 0.029
AAGAGGGTAT	0.9835 ± 0.0065
TGGGGGTGGG	1.02 ± 0.044
TTCTAAAGTA	0.994 ± 0.014
TAGGGAAATA	1 ± 0.051
AGTGTTACGT	0.989 ± 0.042
TCCATGTATC	0.984 ± 0.02
TTTTAGTATA	1.02 ± 0.045
GAATCGTGAG	0.999 ± 0.04
ATTTGGAGG	0.986 ± 0.013
TTACGTGTGA	1.05 ± 0.073
CTCTTGGGGC	0.987 ± 0.041
CCCGGAGGCC	0.961 ± 0.034
TGGTTACCTA	0.987 ± 0.039
AACAGCAATT	1.27 ± 0.35
GTGTGAAAGC	1.011 ± 0.0035
GCGTTATTGG	1.03 ± 0.018
GCAGCGGGGC	1.28 ± 0.038
GGAATTGATG	1.04 ± 0.046
CGGGGCACCA	0.99 ± 0.032
ATGACGCCTG	1 ± 0.022
GTCGCAGGAG	1.05 ± 0.011
GGTGGGATCA	1.09 ± 0.18
AGGGGAAAGG	0.984 ± 0.014
TTTTTGATTG	1.01 ± 0.014

Sequence	switch fluorescence ratio
GTCGCATGAG	1.03 ± 0.05
TGAACCGCTA	1.81 ± 0.16
TAGTTGACCC	1.01 ± 0.053
CGTTGGTGGT	0.99 ± 0.031
GGATAATATT	1.05 ± 0.026
CTTTTATTTT	1.03 ± 0.012
ATTAAAGTTA	1.01 ± 0.013
GATCATCGGG	0.995 ± 0.015
TGGTAATTAG	0.979 ± 0.014
ATAAGTGTTA	0.9898 ± 0.0031
CTAGTAGATC	1.04 ± 0.014
TCCGTTGCGG	1.03 ± 0.034
GGGTAACCGA	0.9832 ± 0.0019
TCTTTAAAGA	0.9785 ± 0.0083
TCGATAGGGA	1.01 ± 0.03
AGTTGGCAAT	1.24 ± 0.061
CTAACCGGTA	1.006 ± 0.0063
ACATTCGCGT	1.05 ± 0.018
TGCGGTTGGG	1.022 ± 0.003
TTTAAGACGA	1.02 ± 0.014
GATTCCCTAT	0.99995 ± 0.00076
TGTTATTGGC	1.08 ± 0.084
ACACGGGGCG	0.984 ± 0.066
CCGAGATTGC	1.95 ± 0.14
